The values that follow come from the supplement of paper PMC5998384.

In data set [1] the test system is HeLa Kyoto. Description: solubility in G1/S (NP-40 vs SDS abundance) (log2 ratio); higher = more soluble. The following applies: cell cycle stage: G1/S.
Data set [2] deals with HeLa Kyoto. Description: melting temperature (median over replicates), in situ; higher = more thermally stable.
In data set [3] the test system is HeLa Kyoto. Briefly: solubility change mitosis vs G1/S (difference of NP-40 vs SDS log2 ratios) (log2 ratio difference); higher = more soluble in mitosis.
Data set [4] relates to HeLa Kyoto. Description: thermal stability score vs G1/S (z-score of summed log2 fold changes over temperatures); higher = more thermally stable than in G1/S.
Where [5] appears, read: cell cycle stage: early G1 (4.5 h after nocodazole release).
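Throughout, for melting temperature (median over replicates), in situ: HeLa Kyoto cells synchronized by double thymidine or nocodazole block, proteins quantified by TMT10plex mass spectrometry, three independent biological replicates.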
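Throughout, for solubility change mitosis vs G1/S (difference of NP-40 vs SDS log2 ratios): synchronized HeLa Kyoto cells (double thymidine block for G1/S, nocodazole release for mitosis), protein amounts in NP-40 versus SDS lysates quantified by mass spectrometry, three biological replicates.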
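Throughout, for solubility in G1/S (NP-40 vs SDS abundance): HeLa Kyoto cells arrested at G1/S by double thymidine block, proteins quantified by TMT10plex mass spectrometry in mild NP-40 versus SDS extracts, three biological replicates.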
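Throughout, for thermal stability score vs G1/S (z-score of summed log2 fold changes over temperatures): synchronized HeLa Kyoto cells, proteins quantified by TMT10plex mass spectrometry, three biological replicates, mitosis taken 0.5 h after nocodazole release, G1/S directly after double thymidine block.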

Take “MAAVAAVAARRRRSWASLVLAFLGVCLGITLAVDRSNFKTCEESSFCKRQRSIRPGLSPYRALLDSLQLGPDSLTVHLIHEVTKVLLVLELQGLQKNMTRFRIDELEPRRPRYRVPDVLVADPPIARLSVSGRDENSVELTMAEGPYKIILTARPFRLDLLEDRSLLLSVNARGLLEFEHQRAPRVSQGSKDPAEGDGAQPEETPRDGDKPEETQGKAEKDEPGAWEETFKTHSDSKPYGPMSVGLDFSLPGMEHVYGIPEHADNLRLKVTEGGEPYRLYNLDVFQYELYNPMALYGSVPVLLAHNPHRDLGIFWLNAAETWVDISSNTAGKTLFGKMMDYLQGSGETPQTDVRWMSETGIIDVFLLLGPSISDVFRQYASLTGTQALPPLFSLGYHQSRWNYRDEADVLEVDQGFDDHNLPCDVIWLDIEHADGKRYFTWDPSRFPQPRTMLERLASKRRKLVAIVDPHIKVDSGYRVHEELRNLGLYVKTRDGSDYEGWCWPGSAGYPDFTNPTMRAWWANMFSYDNYEGSAPNLFVWNDMNEPSVFNGPEVTMLKDAQHYGGWEHRDVHNIYGLYVHMATADGLRQRSGGMERPFVLARAFFAGSQRFGAVWTGDNTAEWDHLKISIPMCLSLGLVGLSFCGADVGGFFKNPEPELLVRWYQMGAYQPFFRAHAHLDTGRREPWLLPSQHNDIIRDALGQRYSLLPFWYTLLYQAHREGIPVMRPLWVQYPQDVTTFNIDDQYLLGDALLVHPVSDSGAHGVQVYLPGQGEVWYDIQSYQKHHGPQTLYLPVTLSSIPVFQRGGTIVPRWMRVRRSSECMKDDPITLFVALSPQGTAQGELFLDDGHTFNYQTRQEFLLRRFSFSGNTLVSSSADPEGHFETPIWIERVVIIGAGKPAAVVLQTKGSPESRLSFQHDPETSVLVLRKPGINVASDWSIHLR [GANAB]”: in the data set with HeLa Kyoto [1], the “solubility in G1/S (log2)” value was -0.0187. For the same sequence, the melting temperature in the data set on HeLa Kyoto [2] (cell cycle stage: G1/S) amounted to 53.6 °C; with HeLa Kyoto [2] (cell cycle stage: mitosis), 54.2 °C. In addition, in the data set on HeLa Kyoto [3], the “solubility change mitosis (log2)” value was -0.155. Further, the thermal stability score in the data set on HeLa Kyoto [4] (setting [5]) was found to be 3.69; in the data set with HeLa Kyoto [4] (cell cycle stage: mitosis) it was 5.36.

Consider “MAAVAGSGAAAAPSSLLLVVGSEFGSPGLLTYVLEELERGIRSWDVDPGVCNLDEQLKVFVSRHSATFSSIVKGQRSLHHRGDNLETLVLLNPSDKSLYDELRNLLLDPASHKLLVLAGPCLEETGELLLQTGGFSPHHFLQVLKDREIRDILATTPPPVQPPILTITCPTFGDWAQLAPAVPGLQGALRLQLRLNPPAQLPNSEGLCEFLEYVAESLEPPSPFELLEPPTSGGFLRLGRPCCYIFPGGLGDAAFFAVNGFTVLVNGGSNPKSSFWKLVRHLDRVDAVLVTHPGADSLPGLNSLLRRKLAERSEVAAGGGSWDDRLRRLISPNLGVVFFNACEAASRLARGEDEAELALSLLAQLGITPLPLSRGPVPAKPTVLFEKMGVGRLDMYVLHPPSAGAERTLASVCALLVWHPAGPGEKVVRVLFPGCTPPACLLDGLVRLQHLRFLREPVVTPQDLEGPGRAESKESVGSRDSSKREGLLATHPRPGQERPGVARKEPARAEAPRKTEKEAKTPRELKKDPKPSVSRTQPREVRRAASSVPNLKKTNAQAAPKPRKAPSTSHSGFPPVANGPRSPPSLRCGEASPPSAACGSPASQLVATPSLELGPIPAGEEKALELPLAASSIPRPRTPSPESHRSPAEGSERLSLSPLRGGEAGPDASPTVTTPTVTTPSLPAEVGSPHSTEVDESLSVSFEQVLPPSAPTSEAGLSLPLRGPRARRSASPHDVDLCLVSPCEFEHRKAVPMAPAPASPGSSNDSSARSQERAGGLGAEETPPTSVSESLPTLSDSDPVPLAPGAADSDEDTEGFGVPRHDPLPDPLKVPPPLPDPSSICMVDPEMLPPKTARQTENVSRTRKPLARPNSRAAAPKATPVAAAKTKGLAGGDRASRPLSARSEPSEKGGRAPLSRKSSTPKTATRGPSGSASSRPGVSATPPKSPVYLDLAYLPSGSSAHLVDEEFFQRVRALCYVISGQDQRKEEGMRAVLDALLASKQHWDRDLQVTLIPTFDSVAMHTWYAETHARHQALGITVLGSNSMVSMQDDAFPACKVEF [MAP1S]”, for which the “solubility in G1/S (log2)” value in the data set with HeLa Kyoto [1] was 0.287. For the same sequence, the results for the melting temperature in the data set on HeLa Kyoto [2] (cell cycle stage: G1/S) and with HeLa Kyoto [2] (cell cycle stage: mitosis) were 50.4 °C and 49.8 °C, respectively. In addition, in the data set on HeLa Kyoto [3], the “solubility change mitosis (log2)” value was -0.216. The thermal stability score with HeLa Kyoto [4] (setting [5]) is -0.227; in the data set with HeLa Kyoto [4] (cell cycle stage: mitosis) it was -0.265.

As for “MAAVDIRDNLLGISWVDSSWIPILNSGSVLDYFSERSNPFYDRTCNNEVVKMQRLTLEHLNQMVGIEYILLHAQEPILFIIRKQQRQSPAQVIPLADYYIIAGVIYQAPDLGSVINSRVLTAVHGIQSAFDEAMSYCRYHPSKGYWWHFKDHEEQDKVRPKAKRKEEPSSIFQRQRVDALLLDLRQKFPPKFVQLKPGEKPVPVDQTKKEAEPIPETVKPEEKETTKNVQQTVSAKGPPEKRMRLQ [MED6]”, the “solubility in G1/S (log2)” value in the data set on HeLa Kyoto [1] came out at 0.404. In addition, the melting temperature in the data set with HeLa Kyoto [2] (cell cycle stage: G1/S) came out at 47.9 °C; in the data set on HeLa Kyoto [2] (cell cycle stage: mitosis) it was 50 °C. In the data set on HeLa Kyoto [3], the “solubility change mitosis (log2)” value is 0.222. The thermal stability score with HeLa Kyoto [4] (setting [5]) is -0.569; in the data set with HeLa Kyoto [4] (cell cycle stage: mitosis) it was -0.431.

As to “MAAVLNAERLEVSVDGLTLSPDPEERPGAEGAPLLPPPLPPPSPPGSGRGPGASGEQPEPGEAAAGGAAEEARRLEQRWGFGLEELYGLALRFFKEKDGKAFHPTYEEKLKLVALHKQVLMGPYNPDTCPEVGFFDVLGNDRRREWAALGNMSKEDAMVEFVKLLNRCCHLFSTYVASHKIEKEEQEKKRKEEEERRRREEEERERLQKEEEKRRREEEERLRREEEERRRIEEERLRLEQQKQQIMAALNSQTAVQFQQYAAQQYPGNYEQQQILIRQLQEQHYQQYMQQLYQVQLAQQQAALQKQQEVVVAGSSLPTSSKVNATVPSNMMSVNGQAKTHTDSSEKELEPEAAEEALENGPKESLPVIAAPSMWTRPQIKDFKEKIQQDADSVITVGRGEVVTVRVPTHEEGSYLFWEFATDNYDIGFGVYFEWTDSPNTAVSVHVSESSDDDEEEEENIGCEEKAKKNANKPLLDEIVPVYRRDCHEEVYAGSHQYPGRGVYLLKFDNSYSLWRSKSVYYRVYYTR [ACBD3]”, the “solubility in G1/S (log2)” value in the data set on HeLa Kyoto [1] is -0.138. Also, the figures for the melting temperature with HeLa Kyoto [2] (cell cycle stage: G1/S) and with HeLa Kyoto [2] (cell cycle stage: mitosis) were 50.4 °C and 50.2 °C, respectively. The “solubility change mitosis (log2)” value in the data set with HeLa Kyoto [3] is -0.137. For the same sequence, the thermal stability score in the data set with HeLa Kyoto [4] (setting [5]) was -1.26; with HeLa Kyoto [4] (cell cycle stage: mitosis), -0.756.

Consider “MAAVPELLQQQEEDRSKLRSVSVDLNVDPSLQIDIPDALSERDKVKFTVHTKTTLPTFQSPEFSVTRQHEDFVWLHDTLIETTDYAGLIIPPAPTKPDFDGPREKMQKLGEGEGSMTKEEFAKMKQELEAEYLAVFKKTVSSHEVFLQRLSSHPVLSKDRNFHVFLEYDQDLSVRRKNTKEMFGGFFKSVVKSADEVLFTGVKEVDDFFEQEKNFLINYYNRIKDSCVKADKMTRSHKNVADDYIHTAACLHSLALEEPTVIKKYLLKVAELFEKLRKVEGRVSSDEDLKLTELLRYYMLNIEAAKDLLYRRTKALIDYENSNKALDKARLKSKDVKLAEAHQQECCQKFEQLSESAKEELINFKRKRVAAFRKNLIEMSELEIKHARNNVSLLQSCIDLFKNN [SNX5]”, for which the “solubility in G1/S (log2)” value in the data set with HeLa Kyoto [1] is 0.468. Further, the melting temperature was found to be 52.3 °C in the data set on HeLa Kyoto [2] (cell cycle stage: G1/S) and 50.9 °C in the data set on HeLa Kyoto [2] (cell cycle stage: mitosis). For the same sequence, in the data set on HeLa Kyoto [3], the “solubility change mitosis (log2)” value is -0.0436. The thermal stability score with HeLa Kyoto [4] (setting [5]) was 0.949; in the data set with HeLa Kyoto [4] (cell cycle stage: mitosis), -0.872.
